Assay [1] concerns the target Mortalin/GRP-75/mt-hsp70 (human (endogenous in MCF-7, MDA-MB-231 and K562)) (UniProt P38646).
Assay [2] shares this target. This is another data set of the same source.

Chain of UniProt P38646 (P38646 47-679): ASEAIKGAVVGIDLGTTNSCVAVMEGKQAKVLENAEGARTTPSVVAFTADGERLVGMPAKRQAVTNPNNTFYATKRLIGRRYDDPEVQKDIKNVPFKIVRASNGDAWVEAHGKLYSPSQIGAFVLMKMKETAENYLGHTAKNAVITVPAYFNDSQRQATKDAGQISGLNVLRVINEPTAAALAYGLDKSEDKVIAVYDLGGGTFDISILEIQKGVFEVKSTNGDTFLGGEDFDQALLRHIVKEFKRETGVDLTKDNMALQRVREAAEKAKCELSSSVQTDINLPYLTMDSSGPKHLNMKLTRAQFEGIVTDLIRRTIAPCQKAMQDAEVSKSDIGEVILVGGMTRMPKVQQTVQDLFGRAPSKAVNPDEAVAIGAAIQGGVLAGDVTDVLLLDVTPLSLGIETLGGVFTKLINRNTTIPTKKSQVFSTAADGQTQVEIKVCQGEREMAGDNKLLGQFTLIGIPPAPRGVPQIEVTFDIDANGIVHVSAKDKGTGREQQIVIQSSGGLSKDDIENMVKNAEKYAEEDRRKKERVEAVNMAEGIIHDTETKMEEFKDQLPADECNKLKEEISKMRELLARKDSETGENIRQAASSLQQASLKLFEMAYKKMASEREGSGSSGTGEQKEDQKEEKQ

In the case of SMRwt-CPP peptide, in assay [1], the complement-mediated cytotoxicity (trypan blue), percent cell death of K562 cells treated with 1120 nM peptide, anti-CXCR4 antibody, minus or plus normal human serum stood at 23%; the complement-mediated cytotoxicity (trypan blue), percent cell death of MCF-7 cells treated with 300 nM peptide, anti-CXCR4 antibody, minus or plus normal human serum amounted to 29%; the complement-mediated cytotoxicity (trypan blue), percent cell death of MDA-MB-231 cells treated with 540 nM peptide, anti-CXCR4 antibody, minus or plus normal human serum worked out at 9%. Moreover, in assay [2], the complement C9 level in extracellular vesicles of K562 cells after peptide and NHS, Western blot, compared to the NHS-treated controls amounted to 24.3%; the complement C9 level in extracellular vesicles of MCF-7 cells after peptide and NHS, Western blot, compared to the NHS-treated controls came out at 37.5%; the complement C9 level in extracellular vesicles of MDA-MB-231 cells after peptide and NHS, Western blot, compared to the NHS-treated controls was determined as 56.3%; the mortalin level in extracellular vesicles of K562 cells after peptide and NHS, Western blot, compared to the NHS-treated controls is 34.4%. In assay [2], this substance displayed a mortalin level in extracellular vesicles of MCF-7 cells after peptide and NHS, Western blot, compared to the NHS-treated controls of 48.4%; a mortalin level in extracellular vesicles of MDA-MB-231 cells after peptide and NHS, Western blot, compared to the NHS-treated controls of 27.5%.

(Values after article PMC6739210.)
